Laboratory results: patent publication US20040234530

Target: C1-esterase inhibitor (human plasma protease C1 inhibitor), purified or in human serum (UniProt P05155)
Sequence (P05155 23-500): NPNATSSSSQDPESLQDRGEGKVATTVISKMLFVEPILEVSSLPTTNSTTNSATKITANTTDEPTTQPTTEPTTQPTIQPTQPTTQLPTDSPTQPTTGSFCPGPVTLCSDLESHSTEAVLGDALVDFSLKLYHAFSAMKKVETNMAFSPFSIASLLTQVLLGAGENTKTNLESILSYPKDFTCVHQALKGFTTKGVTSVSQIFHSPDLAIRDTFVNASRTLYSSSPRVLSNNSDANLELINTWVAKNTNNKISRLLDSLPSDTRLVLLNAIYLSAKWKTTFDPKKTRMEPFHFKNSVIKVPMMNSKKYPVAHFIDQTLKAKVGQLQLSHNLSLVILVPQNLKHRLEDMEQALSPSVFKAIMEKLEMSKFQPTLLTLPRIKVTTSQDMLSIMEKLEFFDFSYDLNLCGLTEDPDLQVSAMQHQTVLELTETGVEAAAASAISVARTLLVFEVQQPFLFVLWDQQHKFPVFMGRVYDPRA

Row | Substance | cleavage of C1-INH (immunoblot) | kallikrein activity (cleavage of chromogenic substrate S-2302)
1 | StcE E435D-His (from pTEG1 in BL21(DE3), strain WAM2726) | While StcE-His is able to degrade C1-INH, we observed no such cleavage with the mutant protein | 
2 | purified kallikrein (Calbiochem) |  | ranging from 88.8% (±2.6% SEM) to 10.3% (±1.3% SEM) activity
